The text below walks through data of publication PMC6457526, “Structure-based molecular characterization and regulatory mechanism of the LftR transcription factor from Listeria monocytogenes: Conformational flexibilities and a ligand-induced regulatory mechanism” (PLoS ONE, 2019).

The term Kd denotes a measure of binding affinity in units of concentration. One may read the stoichiometry N as a count of units in the complex or per binding partner.

Data set [1] has as its target T1, LftR (Listeria monocytogenes, UniProt L8DXR9).
T1 construct: full length, 108 residues, expressed in E. coli; homodimer
The data set is described as follows: fluorescence polarization assay. In kind it is binding. For orientation: In fluorescence polarisation assays a small probe gives low polarisation when free and higher when bound to something large.

Data set [2] deals with the molecule itself. The data set is described as follows: SEC; Superdex 200 10/300, 20 mM HEPES pH 7.4, 150 mM NaCl; apparent molecular weight from gel filtration standards. In general terms: In gel filtration, larger molecules generally elute earlier.
Data set [3] has as its target LftR K9A (Listeria monocytogenes, UniProt Q8Y923 1-108, K9A). The data set is described as follows: fluorescence polarization; FP: 28-mer OP-1 with 5' fluorescein, ex 485 nm / em 535 nm, single-site fit (Prism 5); buffer, salt, pH and temperature of FP and EMSA not given in the material. The following applies: protein: recombinant; tags: C-terminal His6; chain copies: 2; label: 5' fluorescein on top strand.

The target of data set [4] is LftR Y28A (Listeria monocytogenes, UniProt Q8Y923 1-108, Y28A). The description is as above. As to conditions: protein: recombinant; tags: C-terminal His6; chain copies: 2; label: 5' fluorescein on top strand.
In data set [5] the target is LftR wildtype (Listeria monocytogenes, UniProt Q8Y923 1-108). Described as above. The following applies: protein: recombinant; tags: C-terminal His6 (LftRCtH); chain copies: 2; label: 5' fluorescein on top strand.
The target in data set [6] is LftR K56A (Listeria monocytogenes, UniProt Q8Y923 1-108, K56A). The data set is described as above. The following applies: protein: recombinant; tags: C-terminal His6; chain copies: 2; label: 5' fluorescein on top strand.
The target in data set [7] is LftR R53A (Listeria monocytogenes, UniProt Q8Y923 1-108, R53A). The description is as above. The following applies: protein: recombinant; tags: C-terminal His6; chain copies: 2; label: 5' fluorescein on top strand.
Data set [8] has as its target LftR L69A (Listeria monocytogenes, UniProt Q8Y923 1-108, L69A). Described as above. As to conditions: protein: recombinant; tags: C-terminal His6; chain copies: 2; label: 5' fluorescein on top strand.

Take `CC[n+]1c(-c2ccccc2)c2cc(N)ccc2c2ccc(N)cc21` [ethidium bromide]: in data set [1], the Kd came to 3700 ± 1170 nM.

B1: LftRCtH, LftR with a C-terminal His6 tag (natural protein)
chain: MKGLTELLKGSLEGMILERISRGETYGYEITKYLNDLGFDEIVEGTVYTILVRLEKKGLVEIEKKKSELGPPRKFYTLSPAGEEELAIFWKRWDFIQGKIMQVKGGQA
notes: LftR, PadR-2 subfamily transcription factor of Listeria monocytogenes, encoded by lmo0719; 108 residues; Cloned NdeI/XmaI into a modified pET49b vector with a C-terminal His6 tag; source: E. coli BL21 (DE3), purified (Ni-NTA); not shown: His6, C-terminal, kept
In the case of B1, the “stoichiometry N” value in data set [2] stood at 2.

B2: OP-1 28-mer dsDNA (FP) (dsDNA)
DNA 1: GTATTACTATATACTTGTACCTAGTAAC
DNA 2: GTTACTAGGTACAAGTATATAGTAATAC
B2: the Kd in data set [3] was determined as 197 ± 12.1 nM; in data set [4] it was 89.6 ± 1.9 nM; in data set [5], 6.2 ± 1.5 nM; in data set [6], 28.7 ± 2.3 nM; in data set [7] it was 40.1 ± 0.8 nM; in data set [8] it was 62.6 ± 1.3 nM.

B3: LftR_(ΔNtH), tag-free LftR protein after thrombin removal of the N-terminal His6 tag (natural protein)
chain: GSAKDPMKGLTELLKGSLEGMILERISRGETYGYEITKYLNDLGFDEIVEGTVYTILVRLEKKGLVEIEKKKSELGPPRKFYTLSPAGEEELAIFWKRWDFIQGKIMQVKGGQA
notes: six additional vector-derived amino acids left at the N-terminus after thrombin cleavage (numbered -5 to 0 in the structure); LftR, PadR-2 subfamily transcription factor of Listeria monocytogenes, encoded by lmo0719; 108 residues; Expressed from a modified pET49b vector with N-terminal His6 tag and thrombin site; also called Listeria protein facilitating invasion/transcriptional regulator; …
As to B3, in data set [2], the “stoichiometry N” value came to 2.
